Experimental data: article PMC7910587

Target: IQGAP1 (Ras GTPase-activating-like protein IQGAP1) (human (endogenous in INT 407)) (UniProt P46940)
Assay: co-IP; INT 407 cells non-infected or infected for 45 min with C. jejuni wild-type strain (F38011 or 81-176) or the ∆ciaD mutant; lysis in IP buffer with 50 mM NaCl; IP with mouse anti-IQGAP1 and Protein A/G agarose; immunoblots for RacGAP1, Rac1, Erk 1/2

UniProt P46940, sequence (P46940 whole entry): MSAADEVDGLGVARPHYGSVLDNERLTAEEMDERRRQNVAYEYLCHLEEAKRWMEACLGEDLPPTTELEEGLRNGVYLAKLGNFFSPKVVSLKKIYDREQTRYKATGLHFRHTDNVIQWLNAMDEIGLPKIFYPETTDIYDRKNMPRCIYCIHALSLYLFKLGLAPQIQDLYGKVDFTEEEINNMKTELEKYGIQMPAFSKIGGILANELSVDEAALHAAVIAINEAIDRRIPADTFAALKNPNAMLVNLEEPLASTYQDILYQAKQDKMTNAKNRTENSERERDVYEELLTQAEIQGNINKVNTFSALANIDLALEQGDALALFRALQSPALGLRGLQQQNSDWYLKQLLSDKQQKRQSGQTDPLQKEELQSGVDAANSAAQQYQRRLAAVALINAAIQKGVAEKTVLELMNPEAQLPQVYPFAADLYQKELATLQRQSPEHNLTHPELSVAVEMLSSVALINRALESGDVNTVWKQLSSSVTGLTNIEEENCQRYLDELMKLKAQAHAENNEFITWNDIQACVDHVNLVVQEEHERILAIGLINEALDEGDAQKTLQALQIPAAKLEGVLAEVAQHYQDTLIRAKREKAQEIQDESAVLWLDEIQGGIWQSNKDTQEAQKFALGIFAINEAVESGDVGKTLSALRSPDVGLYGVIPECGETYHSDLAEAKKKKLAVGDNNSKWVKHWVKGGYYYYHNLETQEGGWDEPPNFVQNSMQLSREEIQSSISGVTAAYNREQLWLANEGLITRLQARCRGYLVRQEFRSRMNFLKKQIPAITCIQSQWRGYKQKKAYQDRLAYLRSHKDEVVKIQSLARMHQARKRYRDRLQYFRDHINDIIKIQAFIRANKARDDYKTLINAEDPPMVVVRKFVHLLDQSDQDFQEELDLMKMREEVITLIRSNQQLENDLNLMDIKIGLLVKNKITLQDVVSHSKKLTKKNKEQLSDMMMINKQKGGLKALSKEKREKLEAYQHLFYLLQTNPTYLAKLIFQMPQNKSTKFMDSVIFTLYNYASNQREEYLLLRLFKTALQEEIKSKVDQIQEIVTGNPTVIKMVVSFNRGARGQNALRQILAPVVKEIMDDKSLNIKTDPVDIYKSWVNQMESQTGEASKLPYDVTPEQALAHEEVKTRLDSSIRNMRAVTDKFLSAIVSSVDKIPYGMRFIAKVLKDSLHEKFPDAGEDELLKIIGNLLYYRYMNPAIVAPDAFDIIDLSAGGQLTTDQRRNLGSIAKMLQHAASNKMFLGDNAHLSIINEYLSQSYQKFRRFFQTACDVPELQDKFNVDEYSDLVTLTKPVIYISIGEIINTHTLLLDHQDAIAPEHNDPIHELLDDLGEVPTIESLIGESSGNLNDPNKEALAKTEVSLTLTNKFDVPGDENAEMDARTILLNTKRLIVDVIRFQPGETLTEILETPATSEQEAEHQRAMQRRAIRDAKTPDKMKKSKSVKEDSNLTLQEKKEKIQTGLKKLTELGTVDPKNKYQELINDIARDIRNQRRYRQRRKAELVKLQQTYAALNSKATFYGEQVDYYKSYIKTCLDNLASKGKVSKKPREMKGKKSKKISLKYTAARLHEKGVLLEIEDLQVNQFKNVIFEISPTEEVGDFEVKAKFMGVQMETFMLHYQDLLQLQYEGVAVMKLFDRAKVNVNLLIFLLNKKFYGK

Work on “CiaD effector protein of the C. jejuni F38011 wild-type strain (from UniProt Q0PAA2 1-163) (natural protein)” yielded a reduction of RacGAP1 in the IQGAP1 complex on infection with the wild-type strain of 50%.
